First the molecules themselves.
B1: recombinant human FGF21 expressed with an N-terminal hexahistidine tag (ligand)
chain: HHHHHHHPIPDSSPLLQFGGQVRQRYLYTDDAQQTEAHLEIREDGTVGGAADQSPESLLQLKALKPGVIQILGVKTSRFLCQRPDGALYGSLHFDPEACSFRELLLEDGYNVYQSEAHGLPLHLPGNKSPHRDPAPRGPARFLPLPGLPPALPEPPGILAPQPPDVGSSDPLSMVGPSQGRSPSYAS

Several values for one entry are separate records, joined by “and”; a condition that tells them apart may be missing. Equal entries are not always repeated. Where two headings read alike, the source gives them in different places.

For experiment [1], the target named is T1, human KLB and human FGFR1c co-expressed on HEK293/hKLB/hFGFR1c/SRE-luc cells (human, UniProt Q86Z14 1-1044; P11362 22-822). As to the kind of experiment: cell-based or functional assay.
For experiment [2], the target named is T2, cell-surface human FGFR1c (amino acids 1-731 of NP_075594) with cell-surface human KLB on … (human, UniProt P11362 22-822). Briefly: cell-based or functional assay.
In experiment [3] the target is T2, cell-surface human FGFR1c (amino acids …). As to the kind of experiment: cell-based or functional assay. This is another data set of the same source.
Experiment [4] addresses mouse KLB and mouse FGFR1c co-expressed on HEK293/mKLB/mFGFR1c/SRE-Luc cells (mouse). As to the kind of experiment: cell-based or functional assay.
The target of experiment [5] is T1, human KLB and human FGFR1c co-expressed …. Briefly: cell-based or functional assay. The source holds these as a separate data set.
Experiment [6] has the same target. As to the kind of experiment: cell-based or functional assay. The source holds these as a separate data set.
The target of experiment [7] is T3, biotinylated human FGF21 expressed with a N-terminal hexahistidine tag (human, UniProt Q9NSA1 29-209, biotinylated (site not stated)).
T3 construct: also called biotin-6His-hFGF21; biotin 6His-hFGF21
T3 sequence: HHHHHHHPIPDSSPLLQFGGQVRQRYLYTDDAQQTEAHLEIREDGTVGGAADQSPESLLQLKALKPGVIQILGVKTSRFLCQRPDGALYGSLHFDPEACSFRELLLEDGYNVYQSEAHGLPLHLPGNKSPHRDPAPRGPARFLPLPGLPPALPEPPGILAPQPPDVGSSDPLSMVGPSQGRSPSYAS
As to the kind of experiment: competition ELISA: mAb blocks 300 pM biotin-6His-hFGF21 binding to coated hKLB-10his. Here is the method: The ability of anti-FGF21 antibodies to block human FGF21 binding to a cognate binding partner human klotho beta was evaluated with an ELISA-based immunoassay. Briefly, human klotho beta (hKLB-10his; R&D systems, #5889-KB-050) was coated at 2μg/mL on a 96-well plate in PBS buffer overnight at 4° C. […] The equilibrated sample solutions were then transferred to hKLB-10his-coated plates. […] Samples were developed with a TMB solution to produce a colorimetric reaction and then neutralized with 1M sulfuric acid before measuring absorbance at 450 nm on a Victor plate reader. Data analysis was performed using a sigmoidal dose-response model within Prism™ software (GraphPad).
The absorbance values of the wells containing the highest concentration for each antibody were used to determine the percent maximum blockade.
On the technique in general: In an ELISA, binding on a coated surface is turned into a signal by an enzyme label.

For experiment [8], the target named is B1. Briefly: cell-based or functional assay.
Experiment [9] concerns the target B1. As to the kind of experiment: SPR Biacore 4000, mAb captured, 25 C. How it is done: (§1) Antibodies were captured on a goat anti-mouse IgG polyclonal antibody (GE Healthcare, BR-1008-38) surface created through direct amine coupling of the anti-IgG antibodies to a Biacore CM5 sensor chip. Kinetic experiments were carried out using HBS-EP (10 mM HEPES, 150mM NaCl, 3 mM EDTA, 0.05% Surfactant P20, pH 7.4) as both the running buffer and the sample buffer. […] Antibody-antigen association was monitored for 180 seconds while dissociation in buffer was monitored for 300 seconds. Kinetic association (kₐ) and dissociation (kd) rate constants were determined by processing and fitting the data using Scrubber software version 2.0c. Binding dissociation equilibrium constants (KD) and dissociative half-lives (t_{1/2}) were calculated from the kinetic rate constants as: KD =kd/kₐ and t112 =In(2)/kd.
Background: In SPR one partner is held on a chip, and binding of the other changes the refractive index at the surface.

Experiment [10] deals with T4, recombinant cynomolgus monkey FGF21 with an N-terminal hexahistidine tag (cynomolgus monkey).
T4 construct: also called His6-MfFGF21; mfFGF21
T4 chain: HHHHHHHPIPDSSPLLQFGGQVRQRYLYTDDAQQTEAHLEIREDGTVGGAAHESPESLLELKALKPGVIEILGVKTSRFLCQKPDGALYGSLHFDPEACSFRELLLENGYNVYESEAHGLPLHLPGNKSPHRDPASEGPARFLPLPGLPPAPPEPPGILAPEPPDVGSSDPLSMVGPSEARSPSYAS
Briefly: SPR Biacore 4000, mAb captured, 25 C. Here is the method: as §1

Experiment [11] addresses B1. Briefly: SPR Biacore 4000, mAb captured, 37 C. How it is done: as §1
In experiment [12] the target is T4, recombinant cynomolgus monkey FGF21 …. Briefly: SPR Biacore 4000, mAb captured, 37 C. Here is the method:
as §1

The target in experiment [13] is T5, mouse FGF21 (mouse, UniProt Q9JJN1 29-210).
T5 construct: also called mFGF21 (Prospec, # CYT-339)
T5 sequence (looked up): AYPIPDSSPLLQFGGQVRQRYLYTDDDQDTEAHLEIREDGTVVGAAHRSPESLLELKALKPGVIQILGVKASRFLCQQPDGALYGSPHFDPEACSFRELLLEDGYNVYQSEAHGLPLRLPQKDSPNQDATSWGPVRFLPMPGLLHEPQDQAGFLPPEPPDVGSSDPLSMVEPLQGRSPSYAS
As to the kind of experiment: not described.

Experiment [14] has as its target T6, rat FGF21 (rat, UniProt A0A7U3JW68 29-208).
T6 sequence: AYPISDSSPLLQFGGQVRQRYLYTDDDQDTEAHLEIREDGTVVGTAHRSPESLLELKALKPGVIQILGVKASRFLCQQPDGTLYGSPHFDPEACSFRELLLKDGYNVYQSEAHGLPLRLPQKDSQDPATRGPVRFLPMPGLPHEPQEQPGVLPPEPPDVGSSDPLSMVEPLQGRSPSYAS
Briefly: not described.

T2 sequence (P11362 22-822, chain 1 of 2): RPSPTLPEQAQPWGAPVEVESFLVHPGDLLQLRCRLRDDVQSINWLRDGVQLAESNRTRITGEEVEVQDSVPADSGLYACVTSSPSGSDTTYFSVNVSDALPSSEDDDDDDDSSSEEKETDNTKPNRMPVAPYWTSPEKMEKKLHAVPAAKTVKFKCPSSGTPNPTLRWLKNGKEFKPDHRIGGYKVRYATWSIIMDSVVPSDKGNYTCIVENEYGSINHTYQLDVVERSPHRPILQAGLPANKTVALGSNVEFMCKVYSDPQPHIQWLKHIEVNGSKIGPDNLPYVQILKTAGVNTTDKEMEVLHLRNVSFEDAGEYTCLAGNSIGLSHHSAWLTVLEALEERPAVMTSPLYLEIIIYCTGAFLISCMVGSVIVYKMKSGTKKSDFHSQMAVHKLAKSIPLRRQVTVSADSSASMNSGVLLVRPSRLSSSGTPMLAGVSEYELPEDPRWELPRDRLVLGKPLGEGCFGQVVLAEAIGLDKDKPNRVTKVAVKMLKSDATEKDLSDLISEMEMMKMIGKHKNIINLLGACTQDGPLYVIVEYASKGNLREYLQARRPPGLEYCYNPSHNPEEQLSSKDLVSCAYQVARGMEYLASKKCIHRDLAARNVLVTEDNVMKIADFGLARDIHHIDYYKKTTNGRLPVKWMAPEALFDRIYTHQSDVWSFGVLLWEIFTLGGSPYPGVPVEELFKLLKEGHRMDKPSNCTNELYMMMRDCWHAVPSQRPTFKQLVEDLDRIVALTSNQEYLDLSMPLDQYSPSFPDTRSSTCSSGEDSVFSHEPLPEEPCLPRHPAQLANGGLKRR
T2 sequence (chain, as listed by the source, chain 2 of 2): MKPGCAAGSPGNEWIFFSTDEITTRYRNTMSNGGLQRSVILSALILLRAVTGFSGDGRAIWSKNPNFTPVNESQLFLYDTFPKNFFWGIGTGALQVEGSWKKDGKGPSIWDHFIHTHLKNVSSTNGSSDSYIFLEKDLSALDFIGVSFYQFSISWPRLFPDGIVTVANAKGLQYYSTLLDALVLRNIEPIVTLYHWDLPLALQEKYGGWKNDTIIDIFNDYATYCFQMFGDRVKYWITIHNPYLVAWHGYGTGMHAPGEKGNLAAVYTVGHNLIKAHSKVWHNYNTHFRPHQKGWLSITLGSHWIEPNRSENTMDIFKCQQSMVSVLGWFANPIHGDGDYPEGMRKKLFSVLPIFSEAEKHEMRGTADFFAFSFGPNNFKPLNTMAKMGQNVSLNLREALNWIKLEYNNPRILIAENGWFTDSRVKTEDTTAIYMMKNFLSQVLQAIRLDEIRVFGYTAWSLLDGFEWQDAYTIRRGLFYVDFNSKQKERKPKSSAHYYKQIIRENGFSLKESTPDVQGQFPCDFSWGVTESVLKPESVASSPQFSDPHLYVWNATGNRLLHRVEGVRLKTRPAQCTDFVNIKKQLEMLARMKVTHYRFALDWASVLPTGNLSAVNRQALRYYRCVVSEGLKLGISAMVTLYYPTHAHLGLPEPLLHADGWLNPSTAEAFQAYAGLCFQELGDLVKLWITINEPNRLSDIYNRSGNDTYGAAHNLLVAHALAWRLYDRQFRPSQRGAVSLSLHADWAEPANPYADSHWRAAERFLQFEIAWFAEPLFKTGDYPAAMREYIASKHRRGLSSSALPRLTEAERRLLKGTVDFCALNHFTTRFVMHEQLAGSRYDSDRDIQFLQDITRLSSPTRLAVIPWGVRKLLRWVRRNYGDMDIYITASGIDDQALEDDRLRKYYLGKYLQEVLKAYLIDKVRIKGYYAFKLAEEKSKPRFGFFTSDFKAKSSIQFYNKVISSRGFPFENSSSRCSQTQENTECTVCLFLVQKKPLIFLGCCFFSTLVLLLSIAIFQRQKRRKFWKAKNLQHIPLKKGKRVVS
T1 sequence (Q86Z14 whole entry, chain 1 of 2, the tested form may be a part): as the sequence (chain, as listed by the source, chain 2 of 2) above
T1 sequence (P11362 other isoform, or with tags, fused parts or gaps limits assumed, chain 2 of 2): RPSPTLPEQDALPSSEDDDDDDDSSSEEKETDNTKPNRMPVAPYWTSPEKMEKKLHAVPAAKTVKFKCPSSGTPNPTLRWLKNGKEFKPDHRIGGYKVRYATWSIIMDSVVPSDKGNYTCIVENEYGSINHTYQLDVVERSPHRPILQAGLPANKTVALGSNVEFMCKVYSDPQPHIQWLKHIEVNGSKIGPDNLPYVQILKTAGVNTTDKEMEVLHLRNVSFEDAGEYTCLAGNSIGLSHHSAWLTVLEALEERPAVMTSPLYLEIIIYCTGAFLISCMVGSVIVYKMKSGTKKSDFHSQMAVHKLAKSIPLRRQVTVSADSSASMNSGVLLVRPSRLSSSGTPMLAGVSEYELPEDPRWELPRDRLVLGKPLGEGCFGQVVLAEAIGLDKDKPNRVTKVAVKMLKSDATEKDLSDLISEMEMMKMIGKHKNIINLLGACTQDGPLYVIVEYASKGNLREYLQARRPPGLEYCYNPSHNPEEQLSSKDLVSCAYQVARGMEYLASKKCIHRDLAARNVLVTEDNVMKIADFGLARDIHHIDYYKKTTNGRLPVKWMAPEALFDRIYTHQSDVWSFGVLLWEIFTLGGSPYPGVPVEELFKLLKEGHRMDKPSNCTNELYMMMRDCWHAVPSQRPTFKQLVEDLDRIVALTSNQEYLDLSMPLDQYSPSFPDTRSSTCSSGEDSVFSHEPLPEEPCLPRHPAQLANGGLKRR

Regarding B1, the “EC50, SRE-luc activation by ligand” value in experiment [1] was 0.73 nM and 1.4 nM; in [5] it was 1.9 nM; in experiment [6] it was 2.4 nM and 2.2 nM. Also, the “% Activation” value in experiment [2] and in experiment [3] was 100% in each case. In addition, the results for the “EC50, SRE-luc activation” value in experiment [2], in experiment [3] and in [4] were 1.4 nM, 1.1 nM and 0.41 nM, respectively.

B2: H2M6504N (antibody, V domains shown)
VH: EVHLVESGGGLVQPGRSLRLSCVASGFTFDDYAMHWVRQVPGKGLEWVSVITWNSGSIGYADSVKGRFTISRDNAKNSLFLQVSSLRAEDTALYYCAKGISPTGTTPDYWGQGTLVTVSS
VL: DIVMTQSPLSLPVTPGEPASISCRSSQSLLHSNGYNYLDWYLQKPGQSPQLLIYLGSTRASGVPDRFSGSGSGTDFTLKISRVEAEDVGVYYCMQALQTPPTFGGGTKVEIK
notes: mouse IgG2 Fc (H2M prefix); also called H2aM6504N
For B2, in [7], the “% Blocking at 100 nM Antibody Concentration” value (from here on “% Blocking”) amounted to 64%. Moreover, in experiment [8], the “IC50, inhibition of 1 nM FGF21 activation of 293/hKLB/FGFR1c/SRE-Luc cells” value was determined as 1 nM. Also, the Kd (commonly the concentration at which binding is half-saturated) in experiment [9] is 2.3 nM; in [10], 37.2 nM; in experiment [11], 4.4 nM; in experiment [12] it was 64 nM. Moreover, the dissociation rate constant (koff) (commonly the first-order rate constant of dissociation) in experiment [9] was found to be 0.00197 s⁻¹; in experiment [10], 0.0237 s⁻¹; in experiment [11], 0.00549 s⁻¹; in [12] it was 0.053 s⁻¹. In addition, the association rate constant (kon) (commonly a measure of how fast the partners come together) in experiment [9] was 860000 M⁻¹ s⁻¹; in [10], 640000 M⁻¹ s⁻¹; in [11] it was 1.25e+06 M⁻¹ s⁻¹; in experiment [12] it was 820000 M⁻¹ s⁻¹. Besides, the t1/2 in experiment [9] came to 5.9 min; in experiment [10], 0.5 min; in [11] it was 2.1 min; in experiment [12] it was 0.2 min.

B3: H4H6504N (antibody, V domains shown)
VH: EVHLVESGGGLVQPGRSLRLSCVASGFTFDDYAMHWVRQVPGKGLEWVSVITWNSGSIGYADSVKGRFTISRDNAKNSLFLQVSSLRAEDTALYYCAKGISPTGTTPDYWGQGTLVTVSS
VL: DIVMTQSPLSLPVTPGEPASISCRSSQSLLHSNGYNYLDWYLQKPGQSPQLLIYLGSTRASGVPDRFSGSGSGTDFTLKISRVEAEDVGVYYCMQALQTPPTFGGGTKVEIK
notes: 6504N variable domains on human IgG4 Fc (H4H prefix)
B3: the binding result in experiment [13] and in [14] was “no binding” throughout.

B4: H2M6499N (antibody, V domains shown)
VH: QVHLVQSGAEVKKPGASVKVSCKASGYSFTDYYVHWVRQAPGQGLEWMGWFNPKSGDTNSVQKFQGRVSMTGDTSITTAYLDLRRLTSDDTAVYYCGRSGYFDFWGQGTLVTVSS
VL: DVVMTQSPLSLSVTLGQPASISCRSSQSLVFSDGNTFLNWFQQRPGQSPRRLIYNLSNRDSGVPDRFSGSGSGTDFTLKISGVEAEDVGVYYCMQGTHWPLTFGGGTKVEIK
notes: human variable domains, mouse IgG2 Fc (H2M prefix); also called H2aM6499N
B4: in experiment [7], the “% Blocking” value stood at 98% and the half-inhibitory concentration (IC50) (as a rule, the concentration needed to halve the response being measured) is 0.076 nM. Further, in experiment [8], the “IC50, inhibition of 1 nM FGF21 activation of 293/hKLB/FGFR1c/SRE-Luc cells” value was determined as 11 nM. In [9], the equilibrium dissociation constant (Kd) is 19.2 nM, the koff is 0.00669 s⁻¹, the association rate constant (kon) was 349000 M⁻¹ s⁻¹ and the t1/2 came to 1.7 min. Besides, in experiment [10], the Kd amounted to 23.2 nM, the off-rate (koff) turned out to be 0.00578 s⁻¹, the kon came to 250000 M⁻¹ s⁻¹ and the t1/2 is 2 min. Also, in [11], the Kd was 41.1 nM, the off-rate constant (koff) was determined as 0.0212 s⁻¹, the kon stood at 516000 M⁻¹ s⁻¹ and the t1/2 was 0.5 min. In experiment [12], the Kd came out at 46.5 nM, the off-rate constant (koff) is 0.015 s⁻¹, the kon was found to be 323000 M⁻¹ s⁻¹ and the t1/2 worked out at 0.8 min.

B5: H4H6915P (antibody, V domains shown)
VH: QVQLVESGGGVVQPGRSLRLSCAASGFTFSSYVMHWVRQAPGKGLEWVSVISYDGGNKYYADSVKGRFTISRDNSKNTLDLQMNSLRAEDTAVYYCAKEDDYIWGGFFDLWGRGTLVTVSS
VL: DIQMTQSPSSLSASVGDRVTITCRASQGIRNDLGWYQKKPGKAPKRLISAAYSLQSGVTSRFSGSGSGTEFTLTISSLQPEDFATYYCLQHNSYPWTFGQGTKVEIK
notes: human IgG4 Fc (H4H prefix)
B5: the binding result in [13] and in experiment [14] was “no binding” in each case. The “% Blocking” value in experiment [7] amounted to 8%. For the same molecule, in experiment [8], the “IC50, inhibition of 1 nM FGF21 activation of 293/hKLB/FGFR1c/SRE-Luc cells” value came out at 0.5 nM.

B6: H2M6509N (antibody, V domains shown)
VH: EVQLVESGGGLVKPGGSLRLSCAASGFTFSNAWMSWVRQAPGKGLDWVGRIKNKLDGGTTDYAAPVKGRFTISRDDSKNTLYLQMNSLKTEDTAVYYCTTDHGWNYYYGMDVWGQGTTVTVSS
VL: DIQMTQSPSSLSASVGDRVTITCRASQDISNYLAWFQHKPGKAPKSLIYAASSLQGGVPSKFSGSGSGTDFTLTISSLQPEDFATYYCQQYNTYPPTFGAGTKVEIK
notes: mouse IgG2 Fc (H2M prefix); also called H2aM6509N
For the molecule B6, in experiment [7], the “% Blocking” value turned out to be 31% and the IC50 was more than 100 nM. Further, the “IC50, inhibition of 1 nM FGF21 activation of 293/hKLB/FGFR1c/SRE-Luc cells” value in experiment [8] came to 9.1 nM. Besides, in experiment [9], the dissociation constant Kd is 26.6 nM, the koff was determined as 0.00297 s⁻¹, the kon amounted to 111000 M⁻¹ s⁻¹ and the t1/2 worked out at 3.9 min. Further, in [10], the dissociation constant (Kd) was 47.6 nM, the dissociation rate constant (koff) came to 0.00316 s⁻¹, the association rate constant (kon) was 66000 M⁻¹ s⁻¹ and the t1/2 was 3.7 min. In addition, in [11], the equilibrium dissociation constant (Kd) worked out at 58.9 nM, the koff amounted to 0.0139 s⁻¹, the on-rate constant (kon) is 236000 M⁻¹ s⁻¹ and the t1/2 is 0.8 min. Further, in experiment [12], the Kd came to 109 nM, the koff is 0.0142 s⁻¹, the on-rate (kon) is 130000 M⁻¹ s⁻¹ and the t1/2 turned out to be 0.8 min.

B7: H4H6879P (antibody, V domains shown)
VH: QVQLQESGPGLVKPSETLSLTCTVSGGSISGYYWSWIRQPPGKGLEWIGYFYNSGSTNYNPSLKSRVTMSVDTSKNQFSLRLTSVTAADTAVYYCTRERELLYFDYWGQGTLVTVSS
VL: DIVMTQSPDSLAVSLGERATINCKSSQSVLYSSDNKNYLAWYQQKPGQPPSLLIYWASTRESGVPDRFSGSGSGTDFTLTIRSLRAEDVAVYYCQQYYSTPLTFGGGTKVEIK
notes: human IgG4 Fc (H4H prefix)
Regarding B7, the binding result in experiment [13] is given as “no binding”. Also, the binding result in experiment [14] was “no binding”. For the same molecule, in [7], the “% Blocking” value was 34% and the IC50 was more than 100 nM. The “IC50, inhibition of 1 nM FGF21 activation of 293/hKLB/FGFR1c/SRE-Luc cells” value in experiment [8] amounted to 1.3 nM.

(Values after patent US20170174769A1 (Regeneron, published 2017).)
